The values that follow come from the supplement of paper PMC9170038.

Conditions in all cases: FMN input: 0 or 200 uM; Eterna round: R93 (includes R88 designs)
The test system of data set [1] is MS2 coat protein. The data set is described as follows: apparent KD of MS2 coat protein, switch ON state; designed switch direction (-1 OFF switch, 1 ON switch): 1; higher = weaker reporter binding. Put shortly: (§1)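 Titration buffer: 100 mM Tris-HCl pH 7.5, 80 mM KCl, 4 mM MgCl2, without or with constant ligand. Designed RNA switches transcribed on-chip from Illumina sequencing clusters received SNAP-549-labelled MS2 coat protein in twofold steps from 0.7 or 1.5 nM to 3 µM. Apparent KD is the median per design of fits to normalised cluster binding curves.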

Data set [2] deals with MS2 coat protein. The data set is described as follows: apparent KD of MS2 coat protein, switch OFF state (with FMN for OFF switches, without FMN for ON switches); designed switch direction (-1 OFF switch, 1 ON switch): 1; higher = weaker reporter binding. The method, boiled down:
as §1

The test system of data set [3] is MS2 coat protein. The data set is described as follows: apparent KD of MS2 coat protein, switch OFF state (with FMN for OFF switches, without FMN for ON switches); designed switch direction (-1 OFF switch, 1 ON switch): -1; higher = weaker reporter binding. The method, boiled down: as §1
The subject of data set [4] is MS2 coat protein. The data set is described as follows: apparent KD of MS2 coat protein, switch ON state; designed switch direction (-1 OFF switch, 1 ON switch): -1; higher = weaker reporter binding. The method, boiled down: as §1

For “AAAAAAAAAACUCAGGAUAUAGAUCGUUGAACAUGAGGAUCACCCAUGUAGUGAAAAGCGAAAAACUAGAAGGGAGGAAAAAAAAA [SameState2-02]”, the “apparent KD of MS2 coat protein” value came out at 13.3 nM in the data set with MS2 coat protein [1] and 28.7 nM in the data set on MS2 coat protein [2].
Regarding “AAAAAAAAAGUAGAGGAUAUCCGAGUGGUAACAUGAGGAUCACCCAUGUGAAGAAAGGAACAUGAGGAGAAGGCUACAAAAAAAAA [Normal (18/17)]”, the “apparent KD of MS2 coat protein” value came to 11.9 nM in the data set with MS2 coat protein [1] and 30.4 nM in the data set on MS2 coat protein [2].
“AAAAAAAAAGUAUAGGAUAUCCGAGUGGUAACAUGAGGAUCACCCAUGUGAAGAAAGGAAGAUGAGGAGAAGGAUACAAAAAAAAA [Mod of Mat of Nando]”: the “apparent KD of MS2 coat protein” value in the data set on MS2 coat protein [1] was determined as 27.9 nM; in the data set with MS2 coat protein [2], 65.3 nM.
Take “AAAAAACAUGAGGAUCACCCAUGUAAAAAAAACACAGGAUAUCCAAAAAAAAAAAAAAAAGGAGAAGGGUGAAAAA [Nob - Jieux - Same State 1]”: the “apparent KD of MS2 coat protein” value worked out at 22 nM with MS2 coat protein [1] and 48.3 nM in the data set on MS2 coat protein [2].
The corresponding values for “AAAAAACAUGAGGAUCACCCAUGUAAAAAAAACACAGGAUAUCCCUAAAAAAAAAAAAAAGGAGAAGGGUGAAAAA [Nob's Hobby 2 - Jieux - Same State 1]” are 21.3 nM and 29.8 nM.
The matching figures for “AAAAAACAUGAGGAUCACCCAUGUAAUACAACAUCAGGAUAUUGGUUUUACUAUGUAUUACAAGAAGGGAUGAAAA [Same State 1.3b (Same State 1 - Omei 2 )]”: 181 nM and 92.4 nM.
Take “AAAAAACAUGAGGAUCACCCAUGUAUAAAAUGGGAAGGAUAUACUAAGACGAAAGUCAUAGUAGAAGGUCCAAAAA [76%, Meechl, 12]”: the “apparent KD of MS2 coat protein” value in the data set with MS2 coat protein [1] was found to be 44.5 nM; in the data set on MS2 coat protein [2], 193 nM.
With “AAAAAACAUGAGGAUCACCCAUGUAUGAUAACAUCAGGAUAUUGGCUUGACUAUGUCUUACAAGAAGGGAUGAAAA [Same State 1.3e (Same State 1 - Omei 2 )]”, the “apparent KD of MS2 coat protein” value in the data set on MS2 coat protein [1] amounted to 28.3 nM; with MS2 coat protein [2], 48.6 nM.
Turning to “AAAAAACAUGAGGAUCACCCAUGUCAAAAGACGUGAGGAUAUGUACAGACUUCGGUCUGUACAGAAGGCAUGAAAA [SS1 - 1056]”, the figures for the “apparent KD of MS2 coat protein” value with MS2 coat protein [1] and in the data set with MS2 coat protein [2] were 32 nM and 136 nM, respectively.
“AAAAAACAUGAGGAUCACCCAUGUCCUCGGACGUGAGGAUAUGUACAGACUUCGGUCUGUACAGAAGGCACGUAAA [SS1 - 1042]”: the “apparent KD of MS2 coat protein” value turned out to be 492 nM in the data set on MS2 coat protein [1] and 402 nM with MS2 coat protein [2].
The matching figures for “AAAAAACAUGAGGAUCACCCAUGUCGAAAGACAUGAGGAUAUGUACAGACUUCGGUCUGUACAGAAGGCAUGUAAA [SS1 - 1016]”: 104 nM and 813 nM.
Take “UAAAGGCGAGGAUAUACAUGAGGAUCACCCAUGUGAAUAAAUAAGAAAAUAAAAGAAAGUAGAAGGCGCAAGAA [LROPPY Exclusion 3 - v03_deltaG=1.9 break up As mixed]”: the “apparent KD of MS2 coat protein” value with MS2 coat protein [3] was 44.9 nM; in the data set on MS2 coat protein [4] it was 44.1 nM.
The corresponding values for “UAAAGGCGAGGAUAUACAUGAGGAUCACCCAUGUGAAUAAAUAAUAAAAUAAAAUAAAGUAGAAGGCGCAAUAA [LROPPY Exclusion 3 - v03_deltaG=1.9 break up As]” are 43.2 nM and 53.9 nM.
On to “UAACAGUCAGGAUAUGGACAAUACAAUACAAACAAAUAAAGCCAGAAGGGACAUGAGGAUCACCCAUGUAAACA [Simple]”, for which the entries for the “apparent KD of MS2 coat protein” value in the data set on MS2 coat protein [3] and in the data set with MS2 coat protein [4] were 23 nM and 41.6 nM, respectively.
For “UAAGGACAUGAGGAUCACCCAUGUGAGGAUAUGCUCUACGAACGUUUAUUUAUGAGAAGCAGAAGGCACAUUUU [try 2]”, the “apparent KD of MS2 coat protein” value worked out at 127 nM in the data set on MS2 coat protein [3] and 50.4 nM with MS2 coat protein [4].
The matching figures for “UAUAGACAUGAGGAUCACCCAUGUGAGGAUAUGAGUGACUACAGGACAUCACGUACAAUCAGAAGGCACAGAAA [JR_Exc001_Sub016]”: 60.9 nM and 47.9 nM.
As for “UAUAUACAUGAGGAUCACCCAUGUCAGGAUAUGCGCCCAGAAUAUACAUAUGAUACAAGCAGAAGGGACACUAA [JR_Exc001_Sub205]”, the “apparent KD of MS2 coat protein” value is 49.3 nM in the data set with MS2 coat protein [3] and 55.3 nM in the data set on MS2 coat protein [4].
In the case of “UCCACACAUGAGGAUCACCCAUGUGAGGAUAUCUAGAAAACCUCAUGUAAAAAAAUCUAGAGAAGGCACAUGAA [Design 92: Pseudoknot B]”, the “apparent KD of MS2 coat protein” value in the data set with MS2 coat protein [3] is 25 nM; with MS2 coat protein [4] it was 24 nM.
In the case of “UCCAGACAUGAGGAUCACCCAUGUCAGGAUAUCUAGAAAACCUCAUGUAAAAAAAACUAGAGAAGGGAUAUGGA [Design 95: Pseudoknot E]”, the “apparent KD of MS2 coat protein” value with MS2 coat protein [3] was 14.8 nM; in the data set with MS2 coat protein [4] it was 15.2 nM.
The matching figures for “UCCGGACAUGAGGAUCACCCAUGUGAGGAUAUAUAAAGUGGGACUAGAAACAGUCCCAAUAGAAGGCACAUGAC [Esarbiorar]”: 17.6 nM and 22 nM.
As for “UCCGGACAUGAGGAUCACCCAUGUGAGGAUAUAUAAAGUGGGACUGGAAACAGGCCCAAUAGAAGGCACAUGAC [Atatesin]”, the “apparent KD of MS2 coat protein” value with MS2 coat protein [3] worked out at 21.9 nM; in the data set on MS2 coat protein [4], 22.6 nM.
The matching figures for “UCCUCACAUGAGGAUCACCCAUGUUAGGAUAUGCCCGGCGGGUUCUGACCUGCCUAAAGCAGAAGGAACGUGCG [Cexequge]”: 70.1 nM and 16.6 nM.
In the case of “UGCAUGUAAGGAUAUGCAACCGGCGCUCAUUAACCGGUCAAGCAGAAGGUACAUGAGGAUCACCCAUGUGUCCG [Esteleus]”, the figures for the “apparent KD of MS2 coat protein” value with MS2 coat protein [3] and in the data set on MS2 coat protein [4] were 52.2 nM and 17.2 nM, respectively.
The corresponding values for “UGGGAGUCAGGAUAUACGAACAUGUCGCCAGAUGUCAAGGUACAUGAGGAUCACCCAUGUAGAAGGGACGAGAA [salish99-Ex2-28]” are 34.1 nM and 53.1 nM.
The corresponding values for “UGUUGGCGAGGAUAUACAUGAGGAUCACCCAUGUGAGAGAAAAAAGUGAGAAAGAAAAGUAGAAGGCGCUGACA [salish99-ex3-07]” are 282 nM and 46.2 nM.
For the sequence “UUAACACAUGAGGAUCACCCAUGUUAGGAUAUUGUGGUAGGAACAACUGGGAAACGCACAAGAAGGGACACACA [EX1 Malc#18 Mod 18 - Jieux - Exclusion 1]”, the “apparent KD of MS2 coat protein” value in the data set with MS2 coat protein [3] came out at 26.6 nM; in the data set on MS2 coat protein [4], 29.2 nM.
As for “UUAGAACAUGAGGAUCACCCAUGUGAGGAUAUGCAAUACUAAAAAAAAGAUAAUUAUAGCAGAAGGCACGUAGU [JR_EXc001_Sub805]”, the “apparent KD of MS2 coat protein” value in the data set with MS2 coat protein [3] came to 41.4 nM; with MS2 coat protein [4], 35.1 nM.
As for “UUCAAGUGAGGAUAUACGAAUAGUAAGUAAGUAUAACAGACGUAGAAGGCACAUGAGGAUCACCCAUGUAAAUA [JR_Exc004_Sub304]”, the “apparent KD of MS2 coat protein” value in the data set on MS2 coat protein [3] is 22.5 nM; with MS2 coat protein [4] it was 25.8 nM.
In the case of “UUCGCACAUGAGGAUCACCCAUGUCAGGAUAUCGUGGCGGGAAAAACCGGGAAACGCACGAGAAGGGACACACA [EX1 Malc#18 Mod 15 - Jieux - Exclusion 1]”, the “apparent KD of MS2 coat protein” value came out at 51.5 nM in the data set with MS2 coat protein [3] and 47.3 nM in the data set on MS2 coat protein [4].
For “UUUAUGUGAGGAUAUGUACAGAAAAAAAAGGGUGUAACUGUACAGAAGGCACAUGAGGAUCACCCAUGUGAAUA [EX4 381: S S Pseudoknot 6]”, the “apparent KD of MS2 coat protein” value is 216 nM with MS2 coat protein [3] and 113 nM in the data set on MS2 coat protein [4].
